Among the data in patent US20100278832A1 (Chugai, published 2010) are binding result and Kd values, retold here.

The Kd is a measure of binding affinity in units of concentration.

One assay deals with T1, human BST2H (human).
T1 construct: Expressed from pcDNA3.1-hBST2H on CHO-K1 cells (BST2H-CHO line); Splicing variant H, 158 residues; also called type H BST2; BST2H-CHO cells
T1 chain: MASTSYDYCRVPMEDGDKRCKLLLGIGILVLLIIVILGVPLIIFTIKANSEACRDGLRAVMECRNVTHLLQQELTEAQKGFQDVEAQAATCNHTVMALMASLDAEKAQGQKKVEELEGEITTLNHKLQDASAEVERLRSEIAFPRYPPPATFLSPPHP
Briefly: flow cytometry on BST2H-CHO cells. For orientation: Flow cytometry measures light scatter and fluorescence of single cells or particles in a stream.

Assay [1] addresses T2, His-tagged recombinant human BST2 protein R(136)-Q(180) (human, UniProt Q10589 136-180, not fully specified).
T2 construct: Expressed in E. coli BL21(DE3); denatured and reduced for Western blotting; also called lane 9: R(136)------Q(180); not shown: N-terminal His tag supplied by vector pET32
T2 chain: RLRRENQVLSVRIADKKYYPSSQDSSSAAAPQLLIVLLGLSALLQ
Briefly: Western blot of His-tagged BST2 fragment. As to the method:
(§1) The His-tagged human BST2 proteins (synthesized as described in A) were each dissolved in sample buffer, and heated at 70° C. for ten minutes. The dissolved proteins were fractionated on a 4-20% SDS-PAGE gradient gel (Invitrogen) and transferred onto PVDF membrane (Millipore). The membrane was blocked with BSA and incubated with 1 μg/ml antibody 4LD or 2000× diluted anti-His tag antibody (Novagen). After reaction with an HRP-labeled anti-mouse IgG antibody (Jackson), ECL Detection Reagent (GE Healthcare) was reacted for chemical luminescence, and the His-tagged human BST2 proteins were detected using LAS-1000 from Fuji Film.

Assay [2] addresses T3, His-tagged recombinant human BST2 protein L(137)-Q(180) (human, UniProt Q10589 137-180, not fully specified).
T3 construct: Expressed in E. coli BL21(DE3); denatured and reduced for Western blotting; also called lane 10: L(137)-------Q(180); not shown: N-terminal His tag supplied by vector pET32
T3 chain: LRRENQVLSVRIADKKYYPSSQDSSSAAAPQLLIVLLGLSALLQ
Briefly: Western blot of His-tagged BST2 fragment. The method, then:
as §1
(In general: In western blotting, separated proteins are transferred to a membrane and probed.)

Assay [3] concerns the target T4, His-tagged recombinant human BST2 protein K(47)-V(146) (human, UniProt Q10589 47-146).
T4 construct: Expressed in E. coli BL21(DE3); denatured and reduced for Western blotting; also called lane 8: K(47)--V(146); not shown: N-terminal His tag supplied by vector pET32
T4 sequence: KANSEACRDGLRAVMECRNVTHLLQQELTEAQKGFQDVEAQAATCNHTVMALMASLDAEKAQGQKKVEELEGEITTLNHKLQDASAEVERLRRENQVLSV
Briefly: Western blot of His-tagged BST2 fragment. As to the method:
as §1

Assay [4] concerns the target T5, His-tagged recombinant human BST2 protein E(135)-Q(180) (human, UniProt Q10589 135-180, not fully specified).
T5 construct: Expressed in E. coli BL21(DE3); denatured and reduced for Western blotting; also called lane 8: E(135)-----Q(180); not shown: N-terminal His tag supplied by vector pET32
T5 chain: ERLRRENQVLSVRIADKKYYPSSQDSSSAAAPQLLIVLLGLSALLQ
Briefly: Western blot of His-tagged BST2 fragment. The method, then:
as §1

In assay [5] the target is T6, His-tagged recombinant human BST2 protein V(134)-Q(180) (human, UniProt Q10589 134-180, not fully specified).
T6 construct: Expressed in E. coli BL21(DE3); denatured and reduced for Western blotting; also called lane 7: V(134)----Q(180); not shown: N-terminal His tag supplied by vector pET32
T6 chain: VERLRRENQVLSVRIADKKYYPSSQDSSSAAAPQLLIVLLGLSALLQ
Briefly: Western blot of His-tagged BST2 fragment. The method, then: as §1

Assay [6] concerns the target T7, His-tagged recombinant human BST2 protein K(47)-S(145) (human, UniProt Q10589 47-145).
T7 construct: Expressed in E. coli BL21(DE3); denatured and reduced for Western blotting; also called lane 9: K(47)-S(145); not shown: N-terminal His tag supplied by vector pET32
T7 sequence: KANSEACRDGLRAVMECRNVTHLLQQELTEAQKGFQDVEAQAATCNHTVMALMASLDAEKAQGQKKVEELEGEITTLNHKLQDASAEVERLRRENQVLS
Briefly: Western blot of His-tagged BST2 fragment. The method, then:
as §1

Another assay has as its target T8, human BST2D (human, UniProt Q10589 1-161).
T8 construct: Transmembrane glycoprotein, splicing variant D, 180 residues; also called type D BST2; BST2D-CHO cells
Briefly: flow cytometry of hybridoma supernatant on 293T cells expressing human BST2D. The method, then: The hybridoma culture supernatants were analyzed by flow cytometry (FCM). The cells prepared as described in A of Example 1 were suspended in 0.5% BSA/2 mM EDTA/PBS, and collected into centrifuge tubes at 1×10⁵ cells/sample. 40 μl of each hybridoma culture supernatant was added, and the tubes were incubated at room temperature for 30 minutes. Then, a 1-ml aliquot of 0.5% BSA/2 mM EDTA/PBS was added to each tube, the tubes were centrifuged for three minutes at 1200 rpm and 4° C., and the supernatants were discarded; this washing process was repeated twice. A 40-μl aliquot of 100× diluted FITC-labeled goat anti-mouse IgG antibody (Beckman coulter; IM0819) was added to each tube after washing. The tubes were incubated at room temperature for 30 minutes. Following two rounds of washing, the hybridoma culture supernatants were analyzed with flow cytometer FC500 (Beckman coulter) to assess whether the antibody in the supernatants could specifically recognize human BST2D. […] The selected hybridomas were cloned by the limiting dilution method. The resulting hybridomas producing mouse anti-human BST2 antibody were named #3LD, #4LD, #7LD, #9LD, and #19LD.

The target of assay [7] is T9, His-tagged recombinant human BST2 protein K(47)-D(150) (human, UniProt Q10589 47-150).
T9 construct: Expressed in E. coli BL21(DE3); denatured and reduced for Western blotting; also called lane 4: K(47)------D(150); not shown: N-terminal His tag supplied by vector pET32
T9 sequence: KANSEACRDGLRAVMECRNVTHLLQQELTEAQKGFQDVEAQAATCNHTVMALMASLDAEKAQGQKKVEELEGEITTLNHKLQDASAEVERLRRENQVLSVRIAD
Briefly: Western blot of His-tagged BST2 fragment, 1 µg/ml antibody. The method, then: as §1

Assay [8] addresses T10, His-tagged recombinant human BST2 protein A(132)-Q(180) (human, UniProt Q10589 132-180, not fully specified).
T10 construct: Expressed in E. coli BL21(DE3); denatured and reduced for Western blotting; also called lane 5: A(132)--Q(180); not shown: N-terminal His tag supplied by vector pET32
T10 chain: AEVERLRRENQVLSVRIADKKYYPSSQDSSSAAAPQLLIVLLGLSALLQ
The description is as above. The method, then: as §1

In assay [9] the target is T11, His-tagged recombinant human BST2 protein K(47)-I(148) (human, UniProt Q10589 47-148).
T11 construct: Expressed in E. coli BL21(DE3); denatured and reduced for Western blotting; also called lane 6: K(47)----I(148); not shown: N-terminal His tag supplied by vector pET32
T11 sequence: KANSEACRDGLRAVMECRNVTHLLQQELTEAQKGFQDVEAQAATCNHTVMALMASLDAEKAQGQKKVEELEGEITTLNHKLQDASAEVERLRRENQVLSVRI
The description is as above. The method, then: as §1

Assay [10] concerns the target T12, His-tagged recombinant human BST2 protein E(133)-Q(180) (human, UniProt Q10589 133-180, not fully specified).
T12 construct: Expressed in E. coli BL21(DE3); denatured and reduced for Western blotting; not shown: N-terminal His tag supplied by vector pET32
T12 chain: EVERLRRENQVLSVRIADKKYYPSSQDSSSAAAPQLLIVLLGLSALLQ
Described as above. The method, then:
as §1

For assay [11], the target named is T13, His-tagged recombinant human BST2 protein S(131)-Q(180) (human, UniProt Q10589 131-180, not fully specified).
T13 construct: Expressed in E. coli BL21(DE3); denatured and reduced for Western blotting; also called lane 4: S(131)-Q(180); not shown: N-terminal His tag supplied by vector pET32
T13 chain: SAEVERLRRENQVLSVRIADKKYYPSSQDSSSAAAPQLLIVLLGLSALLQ
Described as above. The method, then: as §1

Assay [12] deals with T14, His-tagged recombinant human BST2 protein K(47)-A(149) (human, UniProt Q10589 47-149).
T14 construct: Expressed in E. coli BL21(DE3); denatured and reduced for Western blotting; also called lane 5: K(47)-----A(149); not shown: N-terminal His tag supplied by vector pET32
T14 sequence: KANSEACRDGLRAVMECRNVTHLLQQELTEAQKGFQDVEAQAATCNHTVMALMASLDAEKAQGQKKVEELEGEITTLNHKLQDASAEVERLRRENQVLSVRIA
The assay is described as above. The method, then: as §1

The target of assay [13] is T15, His-tagged recombinant human BST2 protein K(47)-P(155) (human, UniProt Q10589 47-155).
T15 construct: Expressed in E. coli BL21(DE3); denatured and reduced for Western blotting; also called lane 3: K(47)----------P(155); not shown: N-terminal His tag supplied by vector pET32
T15 sequence: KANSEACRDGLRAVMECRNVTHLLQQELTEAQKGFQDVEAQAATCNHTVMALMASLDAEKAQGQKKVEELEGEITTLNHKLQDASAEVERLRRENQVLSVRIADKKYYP
The assay is described as above. As to the method:
as §1

The target in assay [14] is T16, His-tagged recombinant human BST2 protein K(47)-R(147) (human, UniProt Q10589 47-147).
T16 construct: Expressed in E. coli BL21(DE3); denatured and reduced for Western blotting; not shown: N-terminal His tag supplied by vector pET32
T16 sequence: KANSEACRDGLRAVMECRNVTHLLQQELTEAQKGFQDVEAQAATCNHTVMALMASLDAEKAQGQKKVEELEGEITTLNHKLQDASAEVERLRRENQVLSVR
Described as above. As to the method:
as §1

The target of assay [15] is BST2 on human myeloma-derived RPMI8226 cells (human) (UniProt Q10589). Briefly: flow cytometry on RPMI8226 cells, Kd calculated with Prism 4 from percentage of staining at 0.01-10 µg/ml.

B1: mouse anti-human BST2 monoclonal antibody #4LD (antibody, V domains shown)
VH: DVQLQESGPGLVKPSQSLSLTCSVTGYSITSGYYWNWIRQFPGNKLEWMGYISYDGSNNYNPSLKNRISITRDTSKNQFFLKLNSVTTEDTATYYCAILGRGYWGQGTTLTVSS
VL: DIVLTQSPASLAVSLGQRATISCRASQSVSTSSYSYMHWYQQKPGQPPKLLIKYASNLESGVPARFSGSGSGTDFTLNIHPVEEEDTATYYCQHSWEIPYTFGGGTKLEIK
notes: Purified from hybridoma #4LD (FERM BP-10964); also called mouse antibody #4LD; anti-human BST2(D+/H-) antibody
Take B1: the binding result with human BST2H was “no binding”; in assay [1], “no binding (tested: 1 µg/ml)”; in assay [2], “no binding (tested: 1 µg/ml)”; in assay [3] it was “no binding (tested: 1 µg/ml)”; in assay [4], “no binding (tested: 1 µg/ml)”; in assay [5], “no binding (tested: 1 µg/ml)”. The binding result in assay [6] is “no binding (tested: 1 µg/ml)”; with human BST2D, “binds”; in assay [7] it was “binds”; in assay [8], “binds”; in assay [9], “binds”; in assay [10] it was “binds”. Also, the binding result in assay [11], in [12], in assay [13] and in assay [14] was “binds” in each case. Also, the Kd in assay [15] is 0.1 nM.
